# From the nanobody polyreactivity screen of Harvey et al. (2022)
# Assay: yeast display, Sf9 membrane polyspecificity reagent, FACS + sequencing; frameworks hold sequencing errors
# How it was run: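 Galactose induction of a Saccharomyces cerevisiae BJ5465 synthetic nanobody display library ran 36–48 hours. The cells were then stained for 1 hour at 4 °C with 10% biotinylated, detergent-solubilized Sf9 membrane reagent, pulled down on streptavidin microbeads and FACS-sorted into low and high (top ~1%) gates on expression and reagent-binding fluorescence. Labels for polyreactivity follow the gate of origin.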
row,Sequence,polyreactivity (PSR sort gate)
1,QVQLVESGGVLVQAGGSLRLSCAASGSILSNYAMGWYRQAPGKERELVASISSTAGSTYYADSVKGRFTISRDNCKNTVYLQMNSLKPEDTAVYYSIKVFGGGTYDFWGQGTQVTVSS,low polyreactivity
2,QVQLVESGGVLVQAGGSLRLSCAASGSTFEYNVMGWYRPAPGKERELVAAITTGASTNYADSVKGRFTISRDNAKNTVYLQMNCLKPEDTAVYYCAARYWRVRHGSVPAYSGYDYWGLGTQVTVSS,low polyreactivity
3,QVQLVESGGVLVQAGGSLRLSCAASGSTFGPNAMGWYRQAPGKERELVAAIRSNGGRTYYADSVKGRFTISRDNAKNTVYLQMNSLKPEDTAVYYCAAPHYPYDTPYGYWGQGTQVTVSS,low polyreactivity
4,QVQLVESGGVLVQAGGSLRLSCAASGSTFLDYAMGWYRQAPGKERELVAAITSGGSTYYADSVKGRFTISRDNAKNTVDLHMKSMIPEDTAVYYCAADSVTGNAPSLVGDIYYYWGQGTQVTVSS,low polyreactivity
5,QVQLVESGGVLVQAGGSLRLSCAASGSTFLGYAMGWYRQAPGKERELVAAISSGGSTNYADSVKGRFTLSRDNAKNTVYLQMNSLKPDDTAVYYCGARTRRFRYYYWGQGPQVTVSS,high polyreactivity
6,QVQLVESGGVLVQAGGSLRLSCAASGSTFRRYAMGWYRQAPGKERELVAAITTRGGSTYYADSVKGRFTISRDNAKNTVYLQMNSLKPEDTAVYYCARDYSTYLRTAGDYWGQGTQVTVSS,low polyreactivity
7,QVQLVESGGVLVQAGGSLRLSCAASGSTFSVNVMGWSRQAPGKERELVAAINSGGSTDYADSVKGRLTISRDNAKNTVYLQMNSLKPEYTAVYYCNAYDIVIYDYWGQGTQVTVSS,low polyreactivity
8,QVQLVESGGVLVQAGGSLRLSCAASGSTFSWYAMGWYRQAPGKERELFAGITRSDGSTYYADSVKGRFTNSRDNAKNNVYLQMNSLKPEDTAVYYCAADDYIIRYGTNVDYWGQGTQVTVSS,low polyreactivity
9,QVQLVESGGVLVQAGGSLRLSCAASGSTFTYNAMGWYRQAPGKEREFVAANSVGGGITYYADSVKGRFTISRDYAKNTVYLQMKSLKPEDTAVYYCAADGEYPHSEDFEYWGQGTQVTVSS,low polyreactivity
10,QVQLVESGGVLVQAGGSLRLSCAASGSTFVRNAMGWYRQAPGKEWELVAAITGTGDSTYYADSVKGRFTISRDNAKNTVYLQMNSLKPEDTAVYYCAANSDAYRYWYDYWGQGTQVTVSS,low polyreactivity
11,QVQLVESGGVLVQAGGSLRLSCAASGSTFYRYAMGWYRQAPGKERELVAANTRGSRTYYADSVKGRFTISRDNAKNTVYLQMNSLKPEDTAVYYCAAYRDYGSYGSWGQGTQVTVSS,high polyreactivity
12,QVQLVESGGVLVQAGGSLRLSCAASGYIFQTYAMGWYRPAPGKEREFVAAISFIGSSTRYADSVKGRFTISRDNAKNTVYLQMNSLKPEDTAVYYCNNDTITSTWTPYTSWFGYWGQGTQVTVSS,high polyreactivity
13,QVQLVESGGVLVQAGGSLRLSCAATGRIKDNVMGWYRQAPGKERELVAAITRSARRTYYADSVTGRFTISRDNAKNTVYLQMNSLKPEDTAVYYCAAQAERYGFEYWGQGTQVTVSS,low polyreactivity
14,QVQLVESGGVLVQAGGSLRLSCAATVFIFKGNAMGWYRQAPGKEREFVADISARGGSTYYADSVKGRFTISRDNAKNTVYLQMNTLKPEDTAVYYCAATTGLYTRYGYWGQGTQVTVSS,high polyreactivity
15,QVQLVESGGVLVQAGGSLRLSCPASGRIYDGYAMGWYRQAPGKERELVAAINSNDGTTYYADSVKGRFTISRDNAKNTVYLQMNSLKPEDTAVYYCAKVSYNAWSYGPQMDYWGQGTQVTVSS,low polyreactivity
16,QVQLVESGGVLVQAGGSLRLSSAAYGFIFAKYAMVWYIQAHGKERELVAGISESCGSTYYADSVKGRFTISRDNAKNTVYLQLNSLKPEDTAVYYCNADDTVYFIKAGDYWGQGTQGTVSS,high polyreactivity
17,QVQLVESGGVLVQAGVSLRLSCAASGRNFLWYVMGCYRQAPGKERELVAAISSGGRTYYADSVKGRFTSSRDNAKHTLYLQMNSLKPEDTAVYYCAAVRRYLKAAYGYWGQGTQVTVSS,low polyreactivity
18,QVQLVESGGVLVQAVGSLRLSCAASGRIFYPYVMGWYRPAPGKERELVASITSGGGTYYADSVKGRFTISRDNAKNTVYLQMNSLKPEDTAGYYCNALAIWSEDWDHWISYADDYSGQGTQVTVSS,low polyreactivity
19,QVQLVESGPGLVQAGGSLRLSCAASGRIFTANAMGWYRQAPGKERELVAAITTSDGTYYADSVKGRFTISRDNAKNTVYLQMYSLKPEVTAVYYCATDTATYPPAMDDWGQGTQVTVSS,low polyreactivity
20,QVQLVESGRALVQAGGSLRLSCAASGFTFWTNTMGWYIQAPGKERELVAAITSTGGTTYYADSVKGRFTISRDNAKNTVYLQMNSLKAEDTAVYYCAAELGGYVASYYYPGYDYWGQGTQVTVSS,low polyreactivity
21,QVQLVESGRGFVQAGGRLRLSCAASGRTFGRYTMGWYRQAPGKDRELVASISNTARTNYADSVKGRFTISRDNAKNTVYLQMNSLKPEDTAVYYCAATYIVRYGYWGQGTQVTVSS,low polyreactivity

row,Sequence,polyreactivity (PSR sort gate)
1,QVQLVESGRGIVQAGGSLRLSCAASGIIFGGNAMVWYRQAPGKERELVARIRWGGGSTYYADSVKGRFTISRDNAKNTVYLQMNSLKPEDTAVYYCARTTSYLTSTRRYYYWGQGTQVTVSS,high polyreactivity
2,QVQLVESGRGIVQAGGSLRLSCAASGLSFSNYAMGWYRQAPGKERELVARITTSGGRTYYADSVKGRFTISRDNANNTEYLKMNSLKPEDTAVYYCAANNRRRPSYDYDSWGQGTQVTVSS,low polyreactivity
3,QVQLVESGRGLDQAGGSHRISCAGSARIFTIYAMGCYRQAPGKERELVAAISKSGGRTYYADSVKGRFTISRDNAKNTVYVQMNSLKPEDTAVYYCAARWRSWRYKYDYWGQGTQVTVSS,high polyreactivity
4,QVQLVESGRGLFQAGGSLRISCAPSGSNFGYYTMGWYRQAPGKDRELVAAITWSGGSTYYADSVKGRFTISRDNAKNTDYLQMYSLKPEDTAVYYCAADGFYYRNWGRIRYYYWGQGTQVTVSS,low polyreactivity
5,QVQLVESGRGLVHAGGSLRISCAASGSTYTWNVMGWYRQAPGKERELVADINSGADTSYADSVKGRFTISRDNAKNTVYLQMNSLKPEDTGVYYCAADIYVYDYWGQGTQVTVSS,low polyreactivity
6,QVQLVESGRGLVHAGGSLRLSCAASGFILGVNERGWYRQAPGKERELVAAISQGDGSKYYADSVKGRFTISRDNANNTVYLQMNSLKPEDTAVYYCNAELYRDLRGYDHWGQGTQVTVSS,low polyreactivity
7,QVQLVESGRGLVLAGGSLRLSCAASGFIFSYNAMGSYRLAPGKERELVAAISSSGGTTYYADSVKGRFTISRDNAKNTVYLQMNSLKPEDTAVYYCAADGRTYHHHDCGWYRYDYWGQGSQVTVSS,low polyreactivity
8,QVQLVESGRGLVQAGCSLRLSCAASGRTFSLYAMGWYRQAPGKERELVAAITLSAGSTYYADSVKGRFTISRDNEKNTVYLQMNSLKPEDTAVYYCNTRTLVAMGYWGQGTQVTVSS,high polyreactivity
9,QVQLVESGRGLVQAGGILRLFCAASGSTFVSYAIAWYRQAPGKERELVAAISRSGGSTYYADSVKGRFTISRDNAKNTVYLQMNSLKTEDTAVYYCAAVRYWSDYDYWGQGTKVTVSS,high polyreactivity
10,QVQLVESGRGLVQAGGRQRLSSAASGTTFGRYAMGWTRQAPGKQRELVAAISESDGSTYYADSVKGRFTISRDNAKNTVYLQMNSLTPEDTSVYYCAAEWTHYWWYQYDYWGQGTQVTVSS,high polyreactivity
11,QVQLVESGRGLVQAGGSLRISCAASGLILYTYAMGWYRQAPGKERELVAAITKSGGRTYYADSVKGRFTISRDNAKNTVYLQMNSLKPEDTAVYDCAARPYSRPYSFGFYYWGQGTQVTVSS,high polyreactivity
12,QVQLVESGRGLVQAGGSLRISCAASGRIFFYYTMGWYRQAPGRERELVAAINSTGATNYADSVKGRFTISRDNAKNTVYLQMNSLKPEDTAVYYCNAGTRYIFLYPPFLGAAFDYWGQGTQVTVSS,low polyreactivity
13,QVQLVESGRGLVQAGGSLRLICAASGLTFHRYAMGWYRQAPGKERELVAALTWRGVSTYYADSVKGRFTISRDNAKNTVYLQMNSLKPEDTAVYYCAADDYFYDPYEYWGQGTIVTVSS,high polyreactivity
14,QVQLVESGRGLVQAGGSLRLRGAASGSTSWSNAMGWYRQAPGKERELVAAITTGASTYYADSVKGRFTSSRDNAKNTVYLQMNSLKPEDTAVYYCAADPWVLWSYYYWGQGTQVTVSS,low polyreactivity
15,QVQLVESGRGLVQAGGSLRLSCAASASTFYYNAMGWYRQAPGKEREFVAGITSSGAGTYYADSVKGRFTISRDNAKKTVYLQMNSLKPEDTAVYYCAAVYRWEGRTYRYVYWGQGTQVTVSS,high polyreactivity
16,QVQLVESGRGLVQAGGSLRLSCAASGFIFRTYVMGWSRQATGKERELVAAITSSGGSTYYADSVKGRFTISRDTAKNTVYLQMNSLIPEDTAVYYCNAYPVYGRYTHYGYGHWGQGTQVTVSS,high polyreactivity
17,QVQLVESGRGLVQAGGSLRLSCAASGFTFGYYAMGWYRQAPGKERELVASISRSGGSTNYADSVKGRFTISRDNAKNTVYLQMNSLKPEDTAVYYCNKRSYWYQGRFDYWGQGTQVTVSS,high polyreactivity
18,QVQLVESGRGLVQAGGSLRLSCAASGFTFRRYAMVWYRQAPGKERELVAAITRNGGSTYYADSVKGRFTISRDNAKNTVYFQMNRLKPEDTEVYYCNAVLYTPVYDGFDSWGQGTQVTVSS,high polyreactivity
19,QVQLVESGRGLVQAGGSLRLSCAASGFTFYIYAMGWYRQAPGKERELVAAINFGGGGTYYADSVKGRFTISRDNAKNTVYLQMNSLKPEDTAVYYCAADYWYDYYSTEYDYWGQGTQVTVSS,low polyreactivity
20,QVQLVESGRGLVQAGGSLRLSCAASGFTIDYYAIAWYRQAPGKERELVADISSDGSTYADSVKGRFTISRDNAKNTVYLQMNSLKPEDTAVYYCNAYLSKYFRYDYWGQGTQVTVSS,high polyreactivity
